Data set [1] has as its target T1, Musashi-1 (MSI1) (Mus musculus (mouse), UniProt Q61474 1-362). In words: EMSA; 1 ug protein incomplete shift (two bands), 1.5 ug complete shift of 80 fmol probe; REMSA 1x binding buffer (LightShift kit), 0.125 mg/ml BSA, 80 fmol RNA, 1.5 ug protein, 20 ul, 20 min at RT; native 6% PAGE in 0.5x TBE pH 7.5 at 4 C; protein dialyzed in 20 mM TBE, 5 mM DTT. Conditions: protein: recombinant; tags: His tag; label: 3' biotin; single strand. A general note: In EMSA bound probe runs differently from free probe, usually more slowly.

Data set [2] addresses T1, Musashi-1 (MSI1). In words: competition; free probe restored at 1250x (100 pmol) unlabeled RNA; 1.5 ug protein, 80 fmol labeled N1; REMSA 1x binding buffer (LightShift kit), 0.125 mg/ml BSA, 80 fmol RNA, 1.5 ug protein, 20 ul, 20 min at RT; native 6% PAGE in 0.5x TBE pH 7.5 at 4 C; protein dialyzed in 20 mM TBE, 5 mM DTT. The settings on record: protein: recombinant; tags: His tag; label: none; single strand.

T1 sequence (Q61474 whole entry): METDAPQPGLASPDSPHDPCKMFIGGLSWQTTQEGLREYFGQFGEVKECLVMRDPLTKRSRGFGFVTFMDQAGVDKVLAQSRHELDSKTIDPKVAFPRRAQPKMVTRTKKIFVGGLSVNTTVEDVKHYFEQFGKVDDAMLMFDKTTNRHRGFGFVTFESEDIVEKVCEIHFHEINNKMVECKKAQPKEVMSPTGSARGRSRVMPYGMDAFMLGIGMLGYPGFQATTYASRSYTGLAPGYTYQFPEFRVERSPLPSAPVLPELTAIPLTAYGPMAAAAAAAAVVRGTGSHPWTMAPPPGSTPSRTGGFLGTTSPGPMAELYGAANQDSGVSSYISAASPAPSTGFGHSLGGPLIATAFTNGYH

For the molecule GUUUAUAGCUAGAUUAGUUUAGCUGAAAGUUAAGUAGUUUGCAA (ssRNA) [cDio2 3'UTR RNA probe nt 2582-2625], the binding result in the data set with Musashi-1 (MSI1) [1] is “binds”. Regarding GUUUAUAGCUAGAUUAGUUUAGCUGAAAGUUAAGUAGUUUGCAA (ssRNA) [unlabeled cDio2 3'UTR RNA competitor], the binding result in the data set with Musashi-1 (MSI1) [2] is “binds”.

The record behind these values is paper PMC11301063, “The Musashi-1–type 2 deiodinase pathway regulates astrocyte proliferation”.
